Assay results published in publication PMC11481384, “Ponicidin Promotes Hepatocellular Carcinoma Mitochondrial Apoptosis by Stabilizing Keap1‐PGAM5 Complex” (Advanced Science, 2024).

Molecular target: T1, Keap1 Kelch domain (amino acid residues 309 to 624) (human, UniProt Q14145 309-624)
T1 construct: Keap1, Kelch domain, Gene ID 9817 (the human gene), amino acid residues 309 to 624; The species is not put in words; it follows from the printed Gene ID 9817; also called Kelch domain of Keap1; source: E. coli BL21 (Codonplus), purified (Ni-NTA, HiTrap QHP, Superdex 200 Increase)
T1 sequence (Q14145 309-624): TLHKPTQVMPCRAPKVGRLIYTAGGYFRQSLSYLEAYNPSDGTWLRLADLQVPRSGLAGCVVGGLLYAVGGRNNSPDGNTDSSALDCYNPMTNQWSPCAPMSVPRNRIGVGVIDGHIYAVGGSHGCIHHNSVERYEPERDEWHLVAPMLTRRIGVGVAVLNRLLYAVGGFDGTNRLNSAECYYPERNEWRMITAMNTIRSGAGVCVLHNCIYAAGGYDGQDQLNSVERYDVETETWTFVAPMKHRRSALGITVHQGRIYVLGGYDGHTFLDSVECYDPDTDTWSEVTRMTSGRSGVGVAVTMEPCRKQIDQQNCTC
Assay: native gel or EMSA; purified Kelch, Δ54‐PGAM5 and ponicidin incubated on ice for 30 min; 7% non‐denatured gel, 4 °C, 90 V, 1 h; Coomassie staining
Conditions: both partners purified

binding result: binds
B1: ∆54‐PGAM5 (amino acids from number 54 to 289) (domain or fragment, human, UniProt Q96HS1 54-289, looked up)
chain: GPGVWDPNWDRREPLSLINVRKRNVESGEEELASKLDHYKAKATRHIFLIRHSQYHVDGSLEKDRTLTPLGREQAELTGLRLASLGLKFNKIVHSSMTRAIETTDIISRHLPGVCKVSTDLLREGAPIEPDPPVSHWKPEAVQYYEDGARIEAAFRNYIHRADARQEEDSYEIFICHANVIRYIVCRALQFPPEGWLRLSLNNGSITHLVIRPNGRVALRTLGDTGFMPPDKITRS
notes: PGAM5, Gene ID 192111 (the human gene), amino acid residues 54 to 289; The species is not put in words; it follows from the printed Gene ID 192111; also called Δ54‐PGAM5; PGAM5 domain; source: E. coli BL21 (Codonplus), purified (Ni-NTA, HiTrap QHP, Superdex 200 Increase)
